{
  "source": "patent US6797264B1",
  "about": "“Medicinal product and method for treatment of conditions affecting neural stem cells or progenitor cells” (Cellartis AB, priority 1998, dated 2004)",
  "molecules": {"B1": {"name": "GH: Recombinant bovine growth hormone, given 1 mg/kg/day subcutaneously together with cortisol and L-thyroxine (protein, UniProt P01246 27-217, looked up)", "Somatotropin": "AFPAMSLSGLFANAVLRAQHLHQLAADTFKEFERTYIPEGQRYSIQNTQVAFCFSETIPAPTGKNEAQQKSDLELLRISLLLIQSWLGPLQFLSRVFTNSLVFGTSDRVYEKLKDLEEGILALMRELEDGTPRAGQILKQTYDKFDTNMRSDDALLKNYGLLSCFRKDLHKTETYLRVMKCRRFGEASCAF"}},
  "key": {"[1]": {"tested_on": "progenitor cells in the dentate gyrus", "experiment": "BrdU-positive (newborn) cells in the dentate gyrus of hypophysectomized rats", "assay_type": "in vivo, Fisher rats", "source_text": "In this example, the density of BrdU-positive cells in the dentate gyrus of hypophysectomized (Hx) rate treated according to the invention with growth hormone (GH), cortisol (C), and L-thyroxine (T) was compared to the density of BrdU-positive cells in the dentate gyrus of hypophysectomized rats treated with cortisol (C), and L-thyroxine (T), and to the density of the same cells for an untreated unoperated control group.\nFisher rats (Harlan Sprague Dawley) which were inact or hypophysectomized at 50 days of age were mainained under standardized conditions of temperature (24-26° C.), humidity (50-60%) and with lights on between 0500 and 1900 h.\n(§1) The rats had free access to standard laboratory chow and water. Hormonal treatment started 7-10 days after hyophysectomy. All the hypophysectomized rats were given cortisol phosphate (400 μg/kg/day; Solu-Cortef, Upjohn, Puurs, Belgium) and L-thyroxine (10 μg/kg/day; Sigma, USA) diluted in saline as a daily subcutaneous injection (at 0800 h). Recombinant bovine GH (bGH) was diluted in 0.05 M phosphate buffer, pH 8.6, with 1.6% glycerol and 0.02% sodium azide. GH 1 mg/kg/day was given as one daily subcutaneous injection at 24 h intervals. The treatment continued for seven days. Thereafter the rats were sacrificed and the brains taken out and prepared for immunohistochemistry.\n(§2) Ten hypophysectomized rats were substituted with only cortisole and L-thyroxine. […] The thymidine analog BrdU is incorporated into the genetic material upon mitotic division whereafter it can be detected immunohistochemically in the resulting cells. […]\n(§3) The number of BrdU positive cells in the dentate gyrus of the hippocampus were counted using unbiased counting techniques. […]\nFor the immunofluorescence, sections were treated for DNA denaturation as described above, followed by incubation in TBS-TS for 30 min. Thereafter the sections were incubated with mouse-anti-Calbindin-D28k, 1:2000 (Sigma) for 16 h at 4° C. and was detected with a Texas red conjugated donkey anti-mouse IgG. BrdU was detected with a FITC conjugated rabbit anti-BrdU antibody. […]"}, "[2]": {"tested_on": "progenitor cells in the dentate gyrus", "experiment": "BrdU-positive cell proliferation in normal rats treated with GH", "assay_type": "in vivo, Fisher rats", "conditions": "normal animals treated one week with GH, compared with normal controls and with hypophysectomized animals substituted one week then unsubstituted 3 weeks", "procedure": "as §1\nas §2, with “L-thyroxine. Fifteen hypophysectomized rats were substituted with cortisole, L-thyroxine and GH.” for “L-thyroxine.”\nas §3\nThe total number of BrdU positive cells in the granule cell layer, the subgranular layer and the hilus and their corresponding sample volumes were determined in 7-9 coronal sections, […], that contained the dentate gyrus. […]"}},
  "data": [
    {"molecule": "B1", "values": [
      {"measurement": "rate of proliferation of progenitor cells", "setting": "[1]; hypophysectomized animals treated with cortisol and L-thyroxine, quantified after one week of substitution", "value": "significantly increased"},
      {"measurement": "granulae cell neurons", "setting": "[1]; hypophysectomized animals, cortisone, thyroxine and GH vs only cortisone and thyroxine, four weeks after the last BrdU injection, FIG. 2", "value": "significantly more granulae cell neurons"},
      {"measurement": "number of newborn cells in the dentate gyrus", "setting": "[1]; hypophysectomized rats, GH 1 mg/kg/day s.c. plus cortisone and thyroxine, after 7 days, compared to only cortisone and thyroxine, FIG. 1", "value": "significantly increased"},
      {"measurement": "proliferation", "setting": "[2]", "value": "increased"}
    ]}
  ]
}
